B1: FEM1B (parent)
chain: TLAALLLNRSESDIRYLLGYVSQQ

Variants of: B1
Assay: protein stability index of a GFP-peptide fusion (GPS, HEK-293T) (PSI 1-6); higher = more stable
Settings: c terminus: a fixed tail appended
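Also: lentivirally expressed fusions sorted by FACS into six bins by GFP to DsRed ratio, PSI derived from sequencing read proportions per bin multiplied by bin number.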

Protein stability index of substitutions, site by site:
Q23: C 3.58 | V 2.77 | I 2.75 | P 1.36 | L 1.09 | K 2.87 | A 2.35 | N 1.93 | M 3.68 | Y 2.1 | S 2.92 | F 2.3 | E 3.21 | R 2.6 | G 2.58 | T 3.07 | D 2.67 | H 2.27
Q24: V 1.75 | C 3.34 | S 2.18 | M 1.61 | E 2.39 | W 2.52 | F 2.26 | H 2.75 | I 3.41 | T 3.19 | K 4.32 | D 2 | P 2.31 | A 2.5 | N 2.6 | G 2.68
R15: S 3.23 | M 3.35 | Y 3.31 | N 2.55 | Q 1.61 | T 3.37 | P 2.03 | V 1.75
V21: K 1.97 | Q 1.53 | S 3.12 | E 2.03 | I 2.41 | C 3.21 | A 3.97 | T 1.82 | W 3.68 | Y 2.32 | M 2.17 | P 2.42 | G 1.62 | F 2.23 | N 3.55 | L 3.44 | D 2.86 | R 1.3
L18: Q 3.66 | R 3.15 | W 3.01 | A 1.98 | M 1.94 | F 2.34 | H 2.17 | E 1.78 | K 3.43 | P 2.69 | I 2.8 | N 1.73 | V 1.67 | T 3.06 | Y 3.1 | C 2.45 | D 1.64 | S 3.62
Y20: T 1.97 | R 3.14 | C 3.38 | H 2.13 | K 2.46 | N 4.26 | W 2.52 | I 3.01 | Q 3 | D 3.08 | G 2.25 | V 3.32 | M 4.22 | P 2.58 | L 2.66 | F 1.29 | E 4.31 | A 2.91
L17: K 1.1 | D 1.65 | F 2.82 | R 2.04 | C 3.59 | V 2.98 | Q 3.77 | H 1.26 | I 1.99 | T 2.9 | N 2.24 | E 3.04 | M 3.53 | P 1.51 | S 1.92 | W 2.67 | G 2.01
S22: C 2.87 | P 2.53 | Q 3.56 | H 2.55 | D 2.48 | Y 2.7 | K 2.77 | G 2.98 | R 2.37 | I 2.42 | L 3.22 | W 3.27 | N 1.56 | V 2.25 | F 2.73 | T 2.5 | A 3.04
Y16: L 2.01 | C 2.91 | I 1.57 | R 2.06 | V 2.24 | Q 3.05 | E 2.06 | D 2.38 | M 2.45 | F 3.75 | K 2.83 | T 3.16 | P 2.95 | S 1.81 | G 3.2 | A 4.57 | N 2.17 | H 1.88 | W 4.55
G19: Q 2.11 | E 2.37 | K 3.24 | A 2.38 | H 2.78 | D 2.62 | W 1.26 | V 3.02 | M 2.35 | I 3.01 | Y 3.17 | R 3.51 | F 3.44 | C 3.34 | S 2.71 | L 2.87 | P 2.76 | T 2.4
